From publication PMC10397247

What was measured:
Experiment in all cases: two-hybrid library CCmax;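 note: natural log of median RNA to DNA barcode read ratio; higher means stronger binding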
4H2330-AA = target: T1, 4H2330-AA
T1 chain: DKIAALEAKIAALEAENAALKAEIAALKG

4H2343-AA = target: T2, 4H2343-AA; conditions: mean of both orientations
T2 chain: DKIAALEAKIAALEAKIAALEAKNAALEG

4H2389-AA = target: T3, 4H2389-AA; conditions: mean of both orientations
T3 chain: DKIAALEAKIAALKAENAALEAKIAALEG

4H2438-AA = target: T4, 4H2438-AA; conditions: mean of both orientations
T4 chain: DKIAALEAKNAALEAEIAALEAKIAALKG

4H2466-AA = target: T5, 4H2466-AA; conditions: mean of both orientations
T5 chain: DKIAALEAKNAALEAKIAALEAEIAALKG

4H2473-AA = target: T6, 4H2473-AA; conditions: mean of both orientations
T6 chain: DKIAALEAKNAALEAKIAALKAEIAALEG

4H249-AA = target: T7, 4H249-AA; conditions: mean of both orientations
T7 chain: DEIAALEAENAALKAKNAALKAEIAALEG

4H2592-AA = target: T8, 4H2592-AA; conditions: mean of both orientations
T8 chain: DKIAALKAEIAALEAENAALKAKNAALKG

4H2649-AA = target: T9, 4H2649-AA; conditions: mean of both orientations
T9 chain: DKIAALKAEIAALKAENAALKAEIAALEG

4H2698-AA = target: T10, 4H2698-AA; conditions: mean of both orientations
T10 chain: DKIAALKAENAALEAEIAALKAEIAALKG

4H2725-AA = target: T11, 4H2725-AA; conditions: mean of both orientations
T11 chain: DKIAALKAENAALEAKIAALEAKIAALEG

4H2732-AA = target: T12, 4H2732-AA; conditions: mean of both orientations
T12 chain: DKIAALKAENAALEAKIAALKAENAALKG

4H2774-AA = target: T13, 4H2774-AA; conditions: mean of both orientations
T13 chain: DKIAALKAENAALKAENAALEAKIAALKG

4H2865-AA = target: T14, 4H2865-AA; conditions: mean of both orientations
T14 chain: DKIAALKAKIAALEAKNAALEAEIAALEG

4H2931-AA = target: T15, 4H2931-AA; conditions: mean of both orientations
T15 chain: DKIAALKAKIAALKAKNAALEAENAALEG

4H3001-AA = target: T16, 4H3001-AA; conditions: mean of both orientations
T16 chain: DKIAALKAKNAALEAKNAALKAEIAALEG

4H3009-AA = target: T17, 4H3009-AA; conditions: mean of both orientations
T17 chain: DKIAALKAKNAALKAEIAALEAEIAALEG

4H3015-AA = target: T18, 4H3015-AA; conditions: mean of both orientations
T18 chain: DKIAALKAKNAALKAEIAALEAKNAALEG

4H3016-AA = target: T19, 4H3016-AA; conditions: mean of both orientations
T19 chain: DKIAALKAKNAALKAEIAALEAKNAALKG

4H3073-AA = target: T20, 4H3073-AA; conditions: mean of both orientations
T20 chain: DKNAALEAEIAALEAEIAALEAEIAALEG

4H310-AA = target: T21, 4H310-AA; conditions: mean of both orientations
T21 chain: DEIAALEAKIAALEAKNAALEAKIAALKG

4H3120-AA = target: T22, 4H3120-AA; conditions: mean of both orientations
T22 chain: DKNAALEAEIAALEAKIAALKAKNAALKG

4H3130-AA = target: T23, 4H3130-AA; conditions: mean of both orientations
T23 chain: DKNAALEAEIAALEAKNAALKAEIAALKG

4H3165-AA = target: T24, 4H3165-AA; conditions: mean of both orientations
T24 chain: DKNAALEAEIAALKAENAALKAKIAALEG

4H3381-AA = target: T25, 4H3381-AA; conditions: mean of both orientations
T25 chain: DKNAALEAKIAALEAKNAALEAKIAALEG

4H3395-AA = target: T26, 4H3395-AA; conditions: mean of both orientations
T26 chain: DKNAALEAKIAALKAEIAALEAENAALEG

4H3410-AA = target: T27, 4H3410-AA; conditions: mean of both orientations
T27 chain: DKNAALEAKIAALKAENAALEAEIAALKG

4H3438-AA = target: T28, 4H3438-AA; conditions: mean of both orientations
T28 chain: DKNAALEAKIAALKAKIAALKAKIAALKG

4H347-AA = target: T29, 4H347-AA; conditions: mean of both orientations
T29 chain: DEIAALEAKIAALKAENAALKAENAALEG

4H3590-AA = target: T30, 4H3590-AA; conditions: mean of both orientations
T30 chain: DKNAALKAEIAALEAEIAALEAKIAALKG

4H3697-AA = target: T31, 4H3697-AA; conditions: mean of both orientations
T31 chain: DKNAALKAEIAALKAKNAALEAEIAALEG

4H3753-AA = target: T32, 4H3753-AA; conditions: mean of both orientations
T32 chain: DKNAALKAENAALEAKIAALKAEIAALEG

4H3865-AA = target: T33, 4H3865-AA; conditions: mean of both orientations
T33 chain: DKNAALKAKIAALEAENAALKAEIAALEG

4H406-AA = target: T34, 4H406-AA; conditions: mean of both orientations
T34 chain: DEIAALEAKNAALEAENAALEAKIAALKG

4H452-AA = target: T35, 4H452-AA; conditions: mean of both orientations
T35 chain: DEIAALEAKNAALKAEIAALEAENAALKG

4H458-AA = target: T36, 4H458-AA; conditions: mean of both orientations
T36 chain: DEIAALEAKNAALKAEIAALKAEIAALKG

4H485-AA = target: T37, 4H485-AA; conditions: mean of both orientations
T37 chain: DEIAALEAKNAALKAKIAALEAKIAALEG

4H536-AA = target: T38, 4H536-AA; conditions: mean of both orientations
T38 chain: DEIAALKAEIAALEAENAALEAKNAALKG

4H56-AA = target: T39, 4H56-AA; conditions: mean of both orientations
T39 chain: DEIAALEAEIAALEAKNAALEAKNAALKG

4H570-AA = target: T40, 4H570-AA; conditions: mean of both orientations
T40 chain: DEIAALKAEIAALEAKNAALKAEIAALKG

4H629-AA = target: T41, 4H629-AA; conditions: mean of both orientations
T41 chain: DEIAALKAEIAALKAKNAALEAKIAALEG

4H710-AA = target: T42, 4H710-AA; conditions: mean of both orientations
T42 chain: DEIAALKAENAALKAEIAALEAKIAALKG

4H745-AA = target: T43, 4H745-AA; conditions: mean of both orientations
T43 chain: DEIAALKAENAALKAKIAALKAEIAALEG

4H797-AA = target: T44, 4H797-AA; conditions: mean of both orientations
T44 chain: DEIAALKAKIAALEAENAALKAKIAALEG

4H850-AA = target: T45, 4H850-AA; conditions: mean of both orientations
T45 chain: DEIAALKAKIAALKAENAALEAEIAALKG

4H891-AA = target: T46, 4H891-AA; conditions: mean of both orientations
T46 chain: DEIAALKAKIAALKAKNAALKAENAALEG

4H909-AA = target: T47, 4H909-AA; conditions: mean of both orientations
T47 chain: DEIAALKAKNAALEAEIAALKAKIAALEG

4H930-AA = target: T48, 4H930-AA; conditions: mean of both orientations
T48 chain: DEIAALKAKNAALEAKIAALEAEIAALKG

4H94-AA = target: T49, 4H94-AA; conditions: mean of both orientations
T49 chain: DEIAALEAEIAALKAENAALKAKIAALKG

4H_APH = target: T50, 4H_APH; conditions: mean of both orientations
T50 chain: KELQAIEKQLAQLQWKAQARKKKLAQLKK

4H_BCR = target: T51, 4H_BCR; conditions: mean of both orientations
T51 chain: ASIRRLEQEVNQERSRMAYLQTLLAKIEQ

4H_GCN4 = conditions: mean of both orientations
4H_GCN4, sequence (chain, as listed by the source): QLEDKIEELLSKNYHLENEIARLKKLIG

GCN2_T = conditions: mean of both orientations

interaction score (4H2330-AA): 2.14
interaction score (4H2343-AA): -1.3
interaction score (4H2389-AA): -0.00244
interaction score (4H2438-AA): -0.853
interaction score (4H2466-AA): -1.14
interaction score (4H2473-AA): -0.502
interaction score (4H249-AA): -1.48
interaction score (4H2592-AA): -0.144
interaction score (4H2649-AA): 0.31
interaction score (4H2698-AA): -1.05
interaction score (4H2725-AA): -1.57
interaction score (4H2732-AA): -1.45
interaction score (4H2774-AA): -1.55
interaction score (4H2865-AA): -0.443
interaction score (4H2931-AA): -1.63
interaction score (4H3001-AA): -1.21
interaction score (4H3009-AA): -1.35
interaction score (4H3015-AA): -1.54
interaction score (4H3016-AA): -1.44
interaction score (4H3073-AA): -1.5
interaction score (4H310-AA): -0.633
interaction score (4H3120-AA): -1.29
interaction score (4H3130-AA): 0.306
interaction score (4H3165-AA): -1.39
interaction score (4H3381-AA): -1.67
interaction score (4H3395-AA): -1.56
interaction score (4H3410-AA): 0.287
interaction score (4H3438-AA): -1.59
interaction score (4H347-AA): -0.642
interaction score (4H3590-AA): -1.06
interaction score (4H3697-AA): -1.56
interaction score (4H3753-AA): -1.31
interaction score (4H3865-AA): 0.945
interaction score (4H406-AA): -0.544
interaction score (4H452-AA): -1.85
interaction score (4H458-AA): -1.07
interaction score (4H485-AA): -1.35
interaction score (4H536-AA): -1.33
interaction score (4H56-AA): -1.47
interaction score (4H570-AA): 0.717
interaction score (4H629-AA): -1.21
interaction score (4H710-AA): -1.49
interaction score (4H745-AA): -1.42
interaction score (4H797-AA): -0.788
interaction score (4H850-AA): 1.43
interaction score (4H891-AA): -1.54
interaction score (4H909-AA): -1.17
interaction score (4H930-AA): -1.22
interaction score (4H94-AA): 0.579
interaction score (4H_APH): -2.24
interaction score (4H_BCR): -2.26
interaction score (4H_GCN4): -1.88
interaction score (GCN2_T): -1.77
Binder: DKIAALEAKIAALEAENAALKAEIAALKG [4H2330-AA]
